From patent US20250186594A1

Columns and labels:
[1] = target: His-tagged human IL-18BP (human) (UniProt O95998); assay: AlphaLISA of free IL-18BP
[2] = target: Fc fused human IL-18BP isoform a (IL-18BPa) (human) (UniProt O95998); assay: SPR, Fc-IL-18BPa captured, 1:1 fit
Fc fused human IL-18BP isoform a (IL-18BPa) (human), sequence (O95998 31-194): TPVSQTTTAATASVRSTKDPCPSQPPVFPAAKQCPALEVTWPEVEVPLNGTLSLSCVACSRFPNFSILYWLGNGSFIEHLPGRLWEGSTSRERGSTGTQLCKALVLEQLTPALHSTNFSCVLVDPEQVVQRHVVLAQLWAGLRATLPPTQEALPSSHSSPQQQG

| Substance | Kd [1] [nM] | also measured |
| --- | --- | --- |
| IL-18 variant SEQ ID NO: 4 (E6K, C38A, K53A, C68A, M86C) (from UniProt Q14116 37-193) (ligand) | 55.6 |  |
| IL-18 variant SEQ ID NO: 4 with 30 kDa PEG (E6K, C38A, K53A, C68A, M86C-30kPEG) (from UniProt Q14116 37-193) (ligand) | 129 |  |
| IL-18 variant SEQ ID NO: 5 (E6K, V11I, C38A, K53A, T63A, C68A, C76A, M86C, C127A) (from UniProt Q14116 37-193) (ligand) | 181 |  |
| IL-18 variant SEQ ID NO: 5 with 30 kDa PEG (E6K, V11I, C38A, K53A, T63A, C68A, C76A, C127A, M86C-30kPEG) (from UniProt Q14116 37-193) (ligand) | 31.4 |  |
| IL-18 variant SEQ ID NO: 6 (E6K, V11I, C38A, K53A, T63A, C68A, C76A, D98C, C127A) (from UniProt Q14116 37-193) (ligand) | 631 |  |
| IL-18 variant SEQ ID NO: 6 with 30 kDa PEG (E6K, V11I, C38A, K53A, T63A, C68A, C76A, C127A, D98C-30kPEG) (from UniProt Q14116 37-193) (ligand) | 20.2 |  |
| IL-18 variant SEQ ID NO: 8 (E6K, V11I, C38A, K53A, T63A, C68A, C76A, T95C, C127A) (from UniProt Q14116 37-193) (ligand) | 61.1 |  |
| IL-18 variant SEQ ID NO: 9 (E6K, C38A, K53A, C68A, D98C) (from UniProt Q14116 37-193) (ligand) | 82.7 |  |
| IL-18 variant SEQ ID NO: 9 with 30 kDa PEG (E6K, C38A, K53A, C68A, D98C-30kPEG) (from UniProt Q14116 37-193) (ligand) | 151 |  |
| IL-18 variant SEQ ID NO: 11 (E6K, V11I, C38A, K53A, C76A, C127A) (from UniProt Q14116 37-193) (ligand) | 36.8 |  |
| IL-18 variant SEQ ID NO: 28 (E6K, C38A, K53A, T63A, C76A, C127A) (from UniProt Q14116 37-193) (ligand) | 44.4 |  |
| IL-18 variant SEQ ID NO: 28 with 30 kDa PEG (E6K, C38A, K53A, T63A, C76A, C127A, C68-30kPEG) (from UniProt Q14116 37-193) (ligand) | 40.7 |  |
| IL-18 variant SEQ ID NO: 30 with 5 kDa PEG (E6K, V11I, C38A, K53A, T63A, C76A, C127A, C68-5kPEG) (from UniProt Q14116 37-193) (ligand) | 19.7 | Kd [2]: 4.75 nM; koff [2]: 0.00386 s⁻¹; kon [2]: 813000 M⁻¹ s⁻¹ |
| IL-18 variant SEQ ID NO: 30 with 10 kDa PEG (E6K, V11I, C38A, K53A, T63A, C76A, C127A, C68-10kPEG) (from UniProt Q14116 37-193) (ligand) | 15.7 | Kd [2]: 6.83 nM; koff [2]: 0.0036 s⁻¹; kon [2]: 527000 M⁻¹ s⁻¹ |
| IL-18 variant SEQ ID NO: 30 with 20 kDa PEG (E6K, V11I, C38A, K53A, T63A, C76A, C127A, C68-20kPEG) (from UniProt Q14116 37-193) (ligand) | 19.7 | Kd [2]: 12 nM; koff [2]: 0.00397 s⁻¹; kon [2]: 330000 M⁻¹ s⁻¹ |
| IL-18 variant SEQ ID NO: 30 with 30 kDa PEG (E6K, V11I, C38A, K53A, T63A, C76A, C127A, C68-30kPEG) (from UniProt Q14116 37-193) (ligand) | 26.3 | Kd [2]: 45.1 nM; koff [2]: 0.00451 s⁻¹; kon [2]: 106000 M⁻¹ s⁻¹ |
| IL-18 variant SEQ ID NO: 57 (E6K, C38S, K53A) (from UniProt Q14116 37-193) (ligand) | 48.4 | Kd [2]: 1.8 nM; koff [2]: 0.00311 s⁻¹; kon [2]: 1.63e+06 M⁻¹ s⁻¹ |
| IL-18 variant SEQ ID NO: 59 with 10 kDa PEG (E6K, C38A, K53A, C68-10kPEG) (from UniProt Q14116 37-193) (ligand) | 50.7 |  |
| IL-18 variant SEQ ID NO: 59 with 20 kDa PEG (E6K, C38A, K53A, C68-20kPEG) (from UniProt Q14116 37-193) (ligand) | 48.5 |  |
| IL-18 variant SEQ ID NO: 61 (E6K, C38A, K53A, C76A) (from UniProt Q14116 37-193) (ligand) |  | Kd [2]: 2.1 nM; koff [2]: 0.0036 s⁻¹; kon [2]: 1.74e+06 M⁻¹ s⁻¹ |
| IL-18 variant SEQ ID NO: 61 with 30 kDa PEG (E6K, C38A, K53A, C76A, C68-30kPEG) (from UniProt Q14116 37-193) (ligand) |  | Kd [2]: 37.4 nM; koff [2]: 0.00382 s⁻¹; kon [2]: 102000 M⁻¹ s⁻¹ |
| IL-18 variant SEQ ID NO: 204 (V11I, C38A, K53A, C76A, C127A) (from UniProt Q14116 37-193) (ligand) | 8.86 |  |
| IL-18 variant SEQ ID NO: 205 (V11I, C38A, K53A, T63A, C76A, C127A) (from UniProt Q14116 37-193) (ligand) | 0.66 |  |
| IL-18 variant SEQ ID NO: 206 (V11I, C38A, K53A, S55A, C76A, C127A) (from UniProt Q14116 37-193) (ligand) | 9.74 |  |
| IL-18 variant SEQ ID NO: 207 (V11I, C38A, M51G, K53A, C76A, C127A) (from UniProt Q14116 37-193) (ligand) | 373 |  |
| IL-18 variant SEQ ID NO: 208 (V11I, C38A, K53A, D54A, C76A, C127A) (from UniProt Q14116 37-193) (ligand) | 25.8 |  |

| Substance | Kd [1] [nM] | also measured |
| --- | --- | --- |
| IL-18 variant SEQ ID NO: 209 (F2A, V11I, C38A, K53A, C76A, C127A) (from UniProt Q14116 37-193) (ligand) | 57.2 |  |
| IL-18 variant SEQ ID NO: 210 (V11I, E31A, C38A, K53A, C76A, C127A) (from UniProt Q14116 37-193) (ligand) | 0.64 |  |
| IL-18 variant SEQ ID NO: 211 (V11I, T34A, C38A, K53A, C76A, C127A) (from UniProt Q14116 37-193) (ligand) | 1.24 |  |
| IL-18 variant SEQ ID NO: 212 (V11I, D35A, C38A, K53A, C76A, C127A) (from UniProt Q14116 37-193) (ligand) | 2.88 |  |
| IL-18 variant SEQ ID NO: 213 (V11I, S36A, C38A, K53A, C76A, C127A) (from UniProt Q14116 37-193) (ligand) | 1.12 |  |
| IL-18 variant SEQ ID NO: 214 (V11I, D37A, C38A, K53A, C76A, C127A) (from UniProt Q14116 37-193) (ligand) | 4.55 |  |
| IL-18 variant SEQ ID NO: 215 (V11I, E31A, D37A, C38A, K53A, C76A, C127A) (from UniProt Q14116 37-193) (ligand) | 2.12 |  |
| IL-18 variant SEQ ID NO: 216 (V11I, C38A, D40A, K53A, C76A, C127A) (from UniProt Q14116 37-193) (ligand) | 0.74 |  |
| IL-18 variant SEQ ID NO: 217 (V11I, C38A, N41A, K53A, C76A, C127A) (from UniProt Q14116 37-193) (ligand) | 18.5 |  |
| IL-18 variant SEQ ID NO: 218 (V11I, C38A, K53A, C76A, C127A, D132A) (from UniProt Q14116 37-193) (ligand) | 13.7 |  |
| IL-18 variant SEQ ID NO: 219 (V11I, C38A, K53A, C76A, G108A, C127A) (from UniProt Q14116 37-193) (ligand) | 1.24 |  |
| IL-18 variant SEQ ID NO: 220 (V11I, C38A, K53A, C76A, H109A, C127A) (from UniProt Q14116 37-193) (ligand) | 0.55 |  |
| IL-18 variant SEQ ID NO: 221 (V11I, C38A, K53A, C76A, D110A, C127A) (from UniProt Q14116 37-193) (ligand) | 0.71 |  |
| IL-18 variant SEQ ID NO: 222 (K8R, V11I, C38A, C76A, Q103E, C127A) (from UniProt Q14116 37-193) (ligand) | 0.06 |  |
| IL-18 variant SEQ ID NO: 223 (K8E, V11I, C38A, C76A, Q103R, C127A) (from UniProt Q14116 37-193) (ligand) | 0.85 |  |
| IL-18 variant SEQ ID NO: 224 (V11I, C38A, C76A, Q103K, C127A) (from UniProt Q14116 37-193) (ligand) | 0.05 |  |
| IL-18 variant SEQ ID NO: 225 (V11I, C38A, S55H, C76A, C127A) (from UniProt Q14116 37-193) (ligand) | 0.08 |  |
| IL-18 variant SEQ ID NO: 226 (V11I, C38A, S55R, C76A, C127A) (from UniProt Q14116 37-193) (ligand) | 0.15 |  |
| IL-18 variant SEQ ID NO: 227 (V11I, C38A, S55T, C76A, C127A) (from UniProt Q14116 37-193) (ligand) | 0.02 |  |
| IL-18 variant SEQ ID NO: 228 (V11I, C38A, C76A, S105I, C127A) (from UniProt Q14116 37-193) (ligand) | 0.04 |  |
| IL-18 variant SEQ ID NO: 229 (V11I, C38A, C76A, S105K, C127A) (from UniProt Q14116 37-193) (ligand) | 0.05 |  |
| IL-18 variant SEQ ID NO: 230 (K8L, E6K, V11I, C38A, K53A, T63A, C76A, C127A) (from UniProt Q14116 37-193) (ligand) | 0.14 |  |
| IL-18 variant SEQ ID NO: 232 (E6K, V11I, C38A, I49M, K53A, T63A, C76A, C127A) (from UniProt Q14116 37-193) (ligand) | 25.8 |  |
| IL-18 variant SEQ ID NO: 240 (E6R, V11I, C38A, K53A, T63A, C76A, C127A) (from UniProt Q14116 37-193) (ligand) | 5.46 |  |
| IL-18 variant SEQ ID NO: 243 (Y1M, E6K, V11I, C38A, K53A, T63A, C76A, C127A) (from UniProt Q14116 38-193) (ligand) | 2.25 |  |
